According to PMC8928221, “Structure and Function Insight of the α-Glucosidase QsGH13 From Qipengyuania seohaensis sp. SW-135” (Frontiers in Microbiology, 2022):

Columns and labels:
[1] = target: T1, QsGH13 (Qipengyuania seohaensis, UniProt A0A8X6EH34); experiment: residual activity, p-nitrophenol release, absorbance […] nm; assay type: biochemical; settings: product tolerance test, 2 M glucose, substrate pNPαGlu, 20 mM Gly-NaOH pH 10.0, 45 °C
T1 construct: N-terminal His6-SUMO tag cut off with Ulp1; expressed in E. coli BL21(DE3) from pSMT3; dimer; primers encode N-terminus MSGKLP and C-terminus ILETDT (translated from primers)

[2] = target: α-glucosidase QsGH13 from Qipengyuania seohaensis sp. SW-135 (Qipengyuania seohaensis sp. SW-135); experiment: crystal structure; QsGH13 at 10 mg/ml, hanging drop vapour diffusion at 4°C, 0.1 M Tris-HCl pH 8.5, 0.2 M NaCl, 20% PEG 3,350; space group P212121, two monomers per asymmetric unit
[3] = substrate: O=[N+]([O-])c1ccc(O[C@H]2O[C@H](CO)[C@@H](O)[C@H](O)[C@H]2O)cc1; experiment: purified protein; settings: pH 10.0 (20 mM Gly-NaOH), 45 °C, 0.025-2.0 mM substrate

OC[C@H]1OC(O)[C@H](O)[C@@H](O)[C@@H]1O (stereo partly drawn) [glucose]
% activity retained at 2 M [1]: 30%

α-glucosidase QsGH13 from Qipengyuania seohaensis sp. SW-135 (enzyme)
stoichiometry N [2]: 2

B1: QsGH13 (Qipengyuania seohaensis) (protein)
chain: MSGKLPWWKGAVIYQIYPRSFMDSNGDGIGDLPGIAQRLPHIAELGADAIWISPFFKSPMKDFGYDVSDYCDVDPIFGTLEDFDAVIARSHELGLKVLIDQVYSHTSDDHEWFAESRSNRDNPKAEWYVWADAKPDGSPPSNWQSVFGGPAWTWDARRGQYYLHNFLSSQPQLNLHNREAQQAVLDVMRFWLERGVDGFRIDALNFAMHDPQLRDNPPAPPTDKQRTRPFDFQLKTYNQSHADIPAFIERIRALTDEFDGIFTVAEVGGDDAVREMKAFTEGETHLNSAYGFNFLYAEALTPQLVCSALAEWPEEPDLGWPSWAFENHDAPRALSRWCTPEDRQAFARLKTLLLMSLRGNAILYYGEELGLTQVDIPFDQLHDPEAIANWPLTLSRDGARTPMPWDDSECAGFGSTAPWLPVGDDNRPRSVAAQLGDANSLLKFTRQAIALRKANPALHHGHVVECNHDGDLLELVREAGGQRLRCRFNLGSKPVECDDCEGRTLLAINGAEPTALPPFAAIILETDT
Km [3]: 295.2 ± 32.2 µM
